Measurements reported in PMC6078952.

Assays:
[1] = target: recombinant human propeptide of lysyl oxidase (LOX-PP) (human) (UniProt P28300); assay: SPR; Biacore T100 or T200, 25 °C, HBS pH 7.4 with 0.05% P20; LOX-PP covalently immobilised on a CM5 chip via amino groups, plasminogen as analyte; single-cycle kinetics, 2-state model, n = 2
Tropoelastin = Tropoelastin (UniProt P15502); assay: SPR; Biacore T100 or T200, 25 °C, HBS pH 7.4 with 0.05% P20; tropoelastin covalently immobilised on a CM5 chip via amino groups, LOX-PP as analyte; single-cycle kinetics, 2-state model
Sequence of Tropoelastin (P15502 27-786): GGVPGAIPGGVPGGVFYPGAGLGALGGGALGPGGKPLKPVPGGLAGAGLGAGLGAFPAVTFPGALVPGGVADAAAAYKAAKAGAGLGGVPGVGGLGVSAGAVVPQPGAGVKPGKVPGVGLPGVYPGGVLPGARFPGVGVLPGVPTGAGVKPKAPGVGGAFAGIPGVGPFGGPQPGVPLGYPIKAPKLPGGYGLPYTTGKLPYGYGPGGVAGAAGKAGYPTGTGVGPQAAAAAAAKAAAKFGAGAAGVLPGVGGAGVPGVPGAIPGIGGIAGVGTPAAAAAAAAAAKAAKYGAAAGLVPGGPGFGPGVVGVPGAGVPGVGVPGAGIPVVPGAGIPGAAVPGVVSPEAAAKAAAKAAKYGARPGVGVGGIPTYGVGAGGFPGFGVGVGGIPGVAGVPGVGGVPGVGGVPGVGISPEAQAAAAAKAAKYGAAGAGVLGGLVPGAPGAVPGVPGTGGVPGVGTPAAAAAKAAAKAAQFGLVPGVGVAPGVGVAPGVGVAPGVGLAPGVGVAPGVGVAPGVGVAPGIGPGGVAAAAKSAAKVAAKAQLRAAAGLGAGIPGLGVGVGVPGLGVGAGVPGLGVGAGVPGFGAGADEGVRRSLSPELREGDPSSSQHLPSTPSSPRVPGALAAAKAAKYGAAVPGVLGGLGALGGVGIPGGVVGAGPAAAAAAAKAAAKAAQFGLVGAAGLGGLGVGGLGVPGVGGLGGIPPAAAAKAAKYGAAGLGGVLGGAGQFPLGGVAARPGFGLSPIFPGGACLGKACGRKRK

Sequence of recombinant human propeptide of lysyl oxidase (LOX-PP) (human) (P28300 22-168 P24L): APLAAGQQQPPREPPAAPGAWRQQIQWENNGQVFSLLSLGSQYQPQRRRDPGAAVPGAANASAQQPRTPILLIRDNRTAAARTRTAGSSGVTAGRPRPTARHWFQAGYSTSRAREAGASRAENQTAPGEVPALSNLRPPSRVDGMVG

Substance | Kd [1] [nM] | ka of the first step (2-state model) [1] [M⁻¹ s⁻¹] | ka of the second step (2-state model) [1] [s⁻¹] | kd of the first step (2-state model) [1] [s⁻¹] | kd of the second step (2-state model) [1] [s⁻¹] | Kd (Tropoelastin) [nM] | ka of the first step (2-state model) (Tropoelastin) [M⁻¹ s⁻¹] | ka of the second step (2-state model) (Tropoelastin) [s⁻¹] | kd of the first step (2-state model) (Tropoelastin) [s⁻¹] | kd of the second step (2-state model) (Tropoelastin) [s⁻¹]
Plasminogen (natural protein) | 15.8 | 41700 | 0.00214 | 0.00515 | 0.000306 |  |  |  |  | 
recombinant human propeptide of lysyl oxidase (LOX-PP) (from UniProt P28300 22-168) (domain or fragment) |  |  |  |  |  | 1.39 | 331 | 0.003 | 0.0043 | 3.1e-07
